Experimental data: publication PMC7491320, “Pdc2/Pat1 increases the range of decay factors and RNA bound by the Lsm1–7 complex”

How the values were obtained:
[1] = target: T1, Lsm1-7 complex (Schizosaccharomyces pombe, UniProt P87173;O94408;Q9Y7M4;O14352;O42978;Q9UUI1;O74499 …); test: SEC-MALS; monomeric complex; FP: 200 mM NaCl, 20 mM HEPES pH 7.0, 1 mM DTT, 5 mM MgCl2, 0.3 ug/uL acetylated BSA, 500 pM 5'-FAM RNA, 22 C; details: protein: recombinant; tags: N-terminal His6-TEV on Lsm1, TEV-treated; copies: 1;1;1;1;1;1;1
[2] = target: T2, PatMC (Pat1/Pdc2 middle and C-terminal domains);Lsm1-7 complex (Schizosaccharomyces …, UniProt O42958;P87173;O94408;Q9Y7M4;O14352;O42978;Q9UUI1;O74499 …, |); test: SEC-MALS; stoichiometric RNA; dimeric and tetrameric assemblies; FP: 200 mM NaCl, 20 mM HEPES pH 7.0, 1 mM DTT, 5 mM MgCl2, 0.3 ug/uL acetylated BSA, 500 pM 5'-FAM RNA, 22 C; details: protein: recombinant;recombinant; tags: none stated in coexpressed complex;N-terminal His6-TEV on Lsm1, TEV-treated; copies: 1;1;1;1;1;1;1;1
[3] = target: T2, PatMC (Pat1/Pdc2 middle and C-terminal …); test: fluorescence polarization; 5 mM Mg2+; Hill ~1; affinity not affected by PatMC; FP: 200 mM NaCl, 20 mM HEPES pH 7.0, 1 mM DTT, 5 mM MgCl2, 0.3 ug/uL acetylated BSA, 500 pM 5'-FAM RNA, 22 C; details: protein: recombinant;recombinant; tags: none stated in coexpressed complex;N-terminal His6-TEV on Lsm1, TEV-treated; copies: 1;1;1;1;1;1;1;1; label: 5'-FAM
[4] = target: T1, Lsm1-7 complex; test: fluorescence polarization; 5 mM Mg2+; strongly favored; FP: 200 mM NaCl, 20 mM HEPES pH 7.0, 1 mM DTT, 5 mM MgCl2, 0.3 ug/uL acetylated BSA, 500 pM 5'-FAM RNA, 22 C; details: protein: recombinant; tags: N-terminal His6-TEV on Lsm1, TEV-treated; copies: 1;1;1;1;1;1;1; label: 5'-FAM

Binder	binding result [1]	binding result [2]	binding result [3]	binding result [4]
UUUUUUUUUUUUUUU (ssRNA) [U15 (SEC-MALS)]	binds	binds	–	–
UUUUUUUUUUUUUUU (ssRNA) [U15 (FAM)]	–	–	binds	binds
